Reference: patent publication US20170204150A1 (Stanford University, published 2017)

What was measured:
VEGFR2-Fc [1] = biological target: T1, VEGFR2-Fc (UniProt P35968 20-764, limits assumed); assay: yeast surface display, titration with soluble VEGFR2-Fc, % maximum VEGFR2-Fc bound
T1 construct: Neither the source nor the limits of the VEGFR2-Fc construct are stated; also called VEGFR2 receptor; not shown: Fc part

[2] = biological target: T2, prostate specific membrane antigen (PSMA) (UniProt Q04609 44-750, limits assumed); assay: yeast surface display, titration with soluble PSMA, PSMA bound in arbitrary fluorescence
T2 construct: also called folate hydrolase I
T2 sequence (Q04609 44-750 limits assumed): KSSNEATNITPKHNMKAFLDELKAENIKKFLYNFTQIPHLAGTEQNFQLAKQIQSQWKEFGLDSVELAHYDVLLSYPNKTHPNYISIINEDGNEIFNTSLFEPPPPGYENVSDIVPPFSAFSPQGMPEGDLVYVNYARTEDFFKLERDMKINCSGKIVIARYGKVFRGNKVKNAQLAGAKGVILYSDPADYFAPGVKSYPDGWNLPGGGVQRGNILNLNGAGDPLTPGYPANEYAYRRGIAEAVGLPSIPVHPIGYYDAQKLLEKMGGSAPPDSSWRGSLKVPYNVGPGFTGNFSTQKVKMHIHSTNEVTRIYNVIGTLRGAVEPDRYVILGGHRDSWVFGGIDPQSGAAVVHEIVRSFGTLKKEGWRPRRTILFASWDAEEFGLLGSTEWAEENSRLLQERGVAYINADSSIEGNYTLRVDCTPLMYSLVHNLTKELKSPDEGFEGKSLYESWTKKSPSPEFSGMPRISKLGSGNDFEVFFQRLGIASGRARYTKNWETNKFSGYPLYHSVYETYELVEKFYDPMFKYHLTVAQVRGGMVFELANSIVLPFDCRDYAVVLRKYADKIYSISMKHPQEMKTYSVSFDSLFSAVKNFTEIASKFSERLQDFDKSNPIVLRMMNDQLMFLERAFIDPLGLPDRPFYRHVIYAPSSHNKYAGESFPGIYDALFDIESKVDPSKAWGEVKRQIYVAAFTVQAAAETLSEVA

VEGFR2-Fc [3] = biological target: T1, VEGFR2-Fc; assay: soluble protein binding to VEGFR2-Fc, Octet platform (lower table; taken as the soluble-form table from legend paragraph 18 and paragraph 153)
Excerpt: The Octet® platform was used to measure the soluble affinity of the variants to VEGFR2-Fc and their respective target proteins. As with the results on the yeast surface, the variants' affinities to VEGFR2-Fc were similar to each other and to scVEGFmut.

[4] = biological target: T2, prostate specific membrane antigen …; assay: yeast surface display: VEGFR2/PSMA displayed on the yeast cell surface, titrated with soluble PSMA (upper table; taken as the yeast-display table from legend paragraph 18)
VEGFR2-Fc [5] = biological target: T1, VEGFR2-Fc; assay: yeast surface display: VEGFR2/PSMA displayed on the yeast cell surface, titrated with soluble VEGFR2-Fc (upper table; taken as the yeast-display table from legend paragraph 18)
VEGFR2-Fc [6] = biological target: T1, VEGFR2-Fc; assay: yeast surface display: scVEGFmut displayed on the yeast cell surface, titrated with soluble VEGFR2-Fc (upper table; taken as the yeast-display table from legend paragraph 18)

T1 sequence (P35968 20-764 limits assumed): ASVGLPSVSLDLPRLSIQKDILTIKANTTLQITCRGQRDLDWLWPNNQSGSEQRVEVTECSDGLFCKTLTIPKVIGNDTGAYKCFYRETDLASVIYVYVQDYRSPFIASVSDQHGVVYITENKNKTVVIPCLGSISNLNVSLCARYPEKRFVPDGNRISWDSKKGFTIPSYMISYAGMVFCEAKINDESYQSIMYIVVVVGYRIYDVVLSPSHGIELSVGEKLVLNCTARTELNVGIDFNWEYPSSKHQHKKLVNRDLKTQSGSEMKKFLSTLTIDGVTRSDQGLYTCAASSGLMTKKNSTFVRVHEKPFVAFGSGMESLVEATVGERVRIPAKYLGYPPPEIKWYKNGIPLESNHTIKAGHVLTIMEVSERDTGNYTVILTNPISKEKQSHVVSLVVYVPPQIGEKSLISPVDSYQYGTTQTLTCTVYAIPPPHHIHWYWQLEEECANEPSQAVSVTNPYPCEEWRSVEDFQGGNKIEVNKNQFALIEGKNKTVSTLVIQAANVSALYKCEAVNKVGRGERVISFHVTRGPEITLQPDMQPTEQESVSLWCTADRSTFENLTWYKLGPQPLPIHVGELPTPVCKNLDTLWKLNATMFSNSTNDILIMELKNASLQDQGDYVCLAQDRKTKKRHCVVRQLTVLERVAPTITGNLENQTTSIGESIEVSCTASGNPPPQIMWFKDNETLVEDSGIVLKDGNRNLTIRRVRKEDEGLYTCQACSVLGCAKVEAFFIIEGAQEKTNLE

| EC50 (read off the curve) (VEGFR2-Fc [1]) [nM] | EC50 (read off the curve) [2] [nM] | Kd (VEGFR2-Fc [3]) [nM] | Kd [4] [nM] | Kd (VEGFR2-Fc [5]) [nM] | Kd (VEGFR2-Fc [6]) [nM] | Binder |
| --- | --- | --- | --- | --- | --- | --- |
| ~4 | ~40 | 13 | 58 | 4.6 | – | VEGFR2/PSMA protein (designed binder) EVVKAMDVYQRSYCHPIETLVDIFQEYPDEIEYIFKPSCVPLMRCGGCCNDAGLECVPTEESNITMQIMRIKPHQGQHIGEMSFLQHNKCECRPKKDGGGGSGGGGSGGGGSGGGGSEVVKFMDVYQRSYCHPIETLVDIFQEYPSIASWNPWMAFKPSCVPLMRCGGCCNDEGLECVPTEESNITMQIMRNRLFRYLPVRHIGEMSFLQHNKCECRPKKD |
| ~6 | – | 13 | – | – | 6 | scVEGFmut (ligand, also called single-chain antagonist mutant VEGF; scaffold protein) APMAEGGGQNHHEVVKAMDVYQRSYCHPIETLVDIFQEYPDEIEYIFKPSCVPLMRCGGCCNDAGLECVPTEESNITMQIMRIKPHQGQHIGEMSFLQHNKCECRPKKDRARQEKCDKPRRGGGGSGGGGSGGGGSGGGGSAPMAEGGGQNHHEVVKFMDVYQRSYCHPIETLVDIFQEYPDEIEYAFKPSCVPLMRCGGCCNDEGLECVPTEESNITMQIMRAKPHQGQHIGEMSFLQHNKCECRPKKDRARQEKCDKPRR |
